Experimental data: patent US20260184777A1 (BEIJING SUNGEN BIOMEDICAL TECHNOLOGY, published 2026)
Changes are numbered by the printed parent chain.

T1: human S100A8/A9 heterodimeric antigen, His-tagged (hS100A8/A9-His) (human, UniProt P05109 1-93; P06702 1-114)
T1 sequence 1: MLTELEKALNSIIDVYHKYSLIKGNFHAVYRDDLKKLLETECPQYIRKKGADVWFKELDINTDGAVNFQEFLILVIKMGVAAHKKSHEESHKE
T1 sequence 2: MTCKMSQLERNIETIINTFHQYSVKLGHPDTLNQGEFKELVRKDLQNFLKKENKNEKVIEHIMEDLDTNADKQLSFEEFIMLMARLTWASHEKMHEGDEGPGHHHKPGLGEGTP

B1: CM-2 (antibody, human IgG4 S228P, lambda, V domains shown)
VH: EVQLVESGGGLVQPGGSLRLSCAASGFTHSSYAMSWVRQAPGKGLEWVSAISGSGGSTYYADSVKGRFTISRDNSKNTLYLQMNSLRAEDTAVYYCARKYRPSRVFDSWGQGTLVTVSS
VL: SYELTQPPSVSVAPGQTARITCSGDALGDKYASWYQQKPGQAPVLVIYEDSKRPSGIPERFSGSNSGNTATLTISGTQAEDEADYYCQSNDADSVWVFGGGTKLTVLG
B2: CM-6 (antibody, human IgG4 S228P, lambda, V domains shown)
VH: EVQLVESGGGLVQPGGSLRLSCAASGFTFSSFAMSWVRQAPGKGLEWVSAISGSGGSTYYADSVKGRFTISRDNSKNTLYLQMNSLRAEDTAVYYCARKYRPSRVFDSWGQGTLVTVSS
VL: B1 VL
B3: CM-7 (antibody, human IgG4 S228P, lambda, V domains shown)
VH: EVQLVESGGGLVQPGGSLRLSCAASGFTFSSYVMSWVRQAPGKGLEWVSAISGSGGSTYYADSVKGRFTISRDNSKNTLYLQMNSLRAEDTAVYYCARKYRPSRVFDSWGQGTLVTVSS
VL: B1 VL
B4: CM-4 (antibody, human IgG4 S228P, lambda, V domains shown)
VH: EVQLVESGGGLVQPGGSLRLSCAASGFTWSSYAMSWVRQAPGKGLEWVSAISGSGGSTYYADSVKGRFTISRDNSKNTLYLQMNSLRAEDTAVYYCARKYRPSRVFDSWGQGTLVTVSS
VL: B1 VL
B5: CM-3 (antibody, human IgG4 S228P, lambda, V domains shown)
VH: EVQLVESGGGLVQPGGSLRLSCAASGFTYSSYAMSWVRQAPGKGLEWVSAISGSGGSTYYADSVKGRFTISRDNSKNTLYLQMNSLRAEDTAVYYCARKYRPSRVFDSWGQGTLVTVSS
VL: B1 VL
B6: CM-5 (antibody, human IgG4 S228P, lambda, V domains shown)
VH: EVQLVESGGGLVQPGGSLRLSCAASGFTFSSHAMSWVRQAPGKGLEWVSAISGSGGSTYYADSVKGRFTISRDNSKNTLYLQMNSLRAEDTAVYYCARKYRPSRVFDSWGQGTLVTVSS
VL: B1 VL
B7: CM-100 (antibody, human IgG4 S228P, lambda, V domains shown)
VH: EVQLVESGGGLVQPGGSLRLSCAASGFTFSDYAMSWVRQAPGKGLEWVSAISGSGGSHYYAASVKGRFTISRDNSKNTLYLQMNSLRAEDTAVYYCARKYRPSRVFDAWGQGTLVTVSS
VL: B1 VL with G28H, S51A, S94A
B8: CM-101 (antibody, human IgG4 S228P, lambda, V domains shown)
VH: B7 VH
VL: B1 VL with S33A, S51A, S94A
B9: CM-89 (antibody, human IgG4 S228P, lambda, V domains shown)
VH: B7 VH with H58T
VL: B1 VL with S51A, S94A, V95Y
B10: CM-113 (antibody, human IgG4 S228P, lambda, V domains shown)
VH: B7 VH with D31S
VL: B1 VL with G28H, S33A, S51A, S94A
B11: CM-106 (antibody, human IgG4 S228P, lambda, V domains shown)
VH: B7 VH
VL: B1 VL with G28H, S51A, S94A, V95Y
B12: CM-91 (antibody, human IgG4 S228P, lambda, V domains shown)
VH: B7 VH with H58T
VL: B1 VL with G28H, S33A, S51A, S94A
B13: CM-86 (antibody, human IgG4 S228P, lambda, V domains shown)
VH: B7 VH with D31S, Y32H, H58T
VL: B1 VL with S51A, S94A
B14: CM-115 (antibody, human IgG4 S228P, lambda, V domains shown)
VH: B7 VH with F29W, H58T
VL: B1 VL with S51A, S94A, V95W
B15: CM-103 (antibody, human IgG4 S228P, lambda, V domains shown)
VH: B7 VH
VL: B1 VL with S51A, S94A, V95R
B16: CM-96 (antibody, human IgG4 S228P, lambda, V domains shown)
VH: B7 VH with H58T
VL: B1 VL with A32M, S51A, S94A, V95W
B17: CM-93 (antibody, human IgG4 S228P, lambda, V domains shown)
VH: B7 VH with H58T
VL: B1 VL with S51A, S55D, S94A, V95Y
B18: CM-92 (antibody, human IgG4 S228P, lambda, V domains shown)
VH: B7 VH with H58T
VL: B1 VL with G28H, S51A, S94A, V95Y
B19: CM-97 (antibody, human IgG4 S228P, lambda, V domains shown)
VH: B7 VH with H58T
VL: B1 VL with S51A, S55Y, S94A, V95W
B20: CM-87 (antibody, human IgG4 S228P, lambda, V domains shown)
VH: B7 VH with H58T
VL: B1 VL with S51A, S94A, V95W
B21: CM-85 (antibody, human IgG4 S228P, lambda, V domains shown)
VH: B7 VH with F27Y, D31S, H58T
VL: B1 VL with S51A, S94A
B22: CM-88 (antibody, human IgG4 S228P, lambda, V domains shown)
VH: B7 VH with H58T
VL: B1 VL with S51A, S94A, V95R
B23: CM-114 (antibody, human IgG4 S228P, lambda, V domains shown)
VH: B7 VH with D31S
VL: B1 VL with D50H, S51H, S94A
B24: CM-98 (antibody, human IgG4 S228P, lambda, V domains shown)
VH: B7 VH with H58T
VL: B1 VL with S51A, S55W, S94A, V95W
B25: CM-109 (antibody, human IgG4 S228P, lambda, V domains shown)
VH: B7 VH
VL: B1 VL with G28H, D50H, S51H, S94A
B26: CM-117 (antibody, human IgG4 S228P, lambda, V domains shown)
VH: B7 VH with H58T, A108C
VL: B1 VL with S51A, S94A, V95W
B27: CM-90 (antibody, human IgG4 S228P, lambda, V domains shown)
VH: B7 VH with H58T
VL: B1 VL with G28H, S51A, S94A
B28: CM-119 (antibody, human IgG4 S228P, lambda, V domains shown)
VH: B7 VH with H58T, A108Y
VL: B1 VL with S51A, S94A, V95W
B29: CM-94 (antibody, human IgG4 S228P, lambda, V domains shown)
VH: B7 VH with H58T
VL: B1 VL with G28H, D50H, S51H, S94A
B30: CM-102 (antibody, human IgG4 S228P, lambda, V domains shown)
VH: B7 VH
VL: B1 VL with S51A, S94A, V95W
B31: CM-105 (antibody, human IgG4 S228P, lambda, V domains shown)
VH: B7 VH
VL: B1 VL with G28H, S33A, S51A, S94A
B32: CM-95 (antibody, human IgG4 S228P, lambda, V domains shown)
VH: B7 VH with H58T
VL: B1 VL with D50H, S51H, S94A
B33: CM-104 (antibody, human IgG4 S228P, lambda, V domains shown)
VH: B7 VH
VL: B1 VL with S51A, S94A, V95Y
B34: CM-110 (antibody, human IgG4 S228P, lambda, V domains shown)
VH: B7 VH with D31S, S35A, H58T
VL: B1 VL with G28H, S51A, S94A
B35: CM-99 (antibody, human IgG4 S228P, lambda, V domains shown)
VH: B7 VH
VL: B1 VL with S51A, S94A
B36: CM-112 (antibody, human IgG4 S228P, lambda, V domains shown)
VH: B7 VH with D31S
VL: B1 VL with G28H, S51A, S94A
B37: CM-107 (antibody, human IgG4 S228P, lambda, V domains shown)
VH: B7 VH
VL: B1 VL with D50H, S51H, S94A
B38: CM-116 (antibody, human IgG4 S228P, lambda, V domains shown)
VH: B7 VH with H58T, A108F
VL: B1 VL with S51A, S94A, V95W
B39: CM-108 (antibody, human IgG4 S228P, lambda, V domains shown)
VH: B7 VH
VL: B1 VL with S51A, S55D, S94A, V95Y
B40: CM-111 (antibody, human IgG4 S228P, lambda, V domains shown)
VH: B7 VH with D31S, S54H, H58T
VL: B1 VL with S33A, S51A, S94A
B41: CM-118 (antibody, human IgG4 S228P, lambda, V domains shown)
VH: B7 VH with H58T, A108H
VL: B1 VL with S51A, S94A, V95W

Target: T1, human S100A8/A9 heterodimeric antigen, …
Experiment: cell-based or functional assay

Row | IC50, inhibition of IL-6 release from hS100A8/A9-activated human PBMCs | Binder
1 | 0.199 µg/mL | B1
2 | 0.488 µg/mL | B2
3 | 0.12 µg/mL | B3
4 | 0.04 µg/mL | B4
5 | 0.029 µg/mL | B5
6 | 0.436 µg/mL | B6

Target: T1, human S100A8/A9 heterodimeric antigen, …
Experiment: cell-based or functional assay
Remark: another data set of the same source

Row | Relative IC50 (IC50 relative to CM-1), IL-6 release from hS100A8/A9-activated human PBMCs | Binder
7 | 1.12 relative to CM-1 | B7
8 | 0.683 relative to CM-1 | B8
9 | 0.572 relative to CM-1 | B9
10 | 0.442 relative to CM-1 | B10
11 | 0.352 relative to CM-1 | B11
12 | 1.1 relative to CM-1 | B12
13 | 1.27 relative to CM-1 | B13
14 | 1.34 relative to CM-1 | B14
15 | 0.687 relative to CM-1 | B15
16 | 1.47 relative to CM-1 | B16
17 | 0.953 relative to CM-1 | B17
18 | 0.697 relative to CM-1 | B18
19 | 0.599 relative to CM-1 | B19
20 | 0.749 relative to CM-1 | B20
21 | 1.86 relative to CM-1 | B21
22 | 1.01 relative to CM-1 | B22
23 | 0.899 relative to CM-1 | B23
24 | 0.703 relative to CM-1 | B24

Row | Relative IC50 (IC50 relative to CM-1), IL-6 release from hS100A8/A9-activated human PBMCs | Binder
25 | 0.475 relative to CM-1 | B25
26 | 0.367 relative to CM-1 | B26
27 | 1.54 relative to CM-1 | B27
28 | 1.37 relative to CM-1 | B28
29 | 2.81 relative to CM-1 | B29
30 | 0.464 relative to CM-1 | B30
31 | 1.5 relative to CM-1 | B31
32 | 1.11 relative to CM-1 | B32
33 | 1.76 relative to CM-1 | B33
34 | 0.878 relative to CM-1 | B34
35 | 1.3 relative to CM-1 | B35
36 | 0.738 relative to CM-1 | B36
37 | 0.386 relative to CM-1 | B37
38 | 0.986 relative to CM-1 | B38
39 | 1.5 relative to CM-1 | B39
40 | 1.08 relative to CM-1 | B40
41 | 1.63 relative to CM-1 | B41
